B1: IgG1-ROR2-A-HC3LC2-FEAR (antibody, V domains shown)
VH: EVQLLESGGGLVQPGGSLRLSCTVSGFSLSSYSMSWVRQAPGKGLEWIGVIYVNSKTWYANWAKGRFTISKTSTTVYLQMNSLRAEDTATYYCARGDAGYTTNSWLWGQGTLVTVSS
VL: AFELTQSPSSLSASVGDRVTITCQASESIDNYLSWYQQKPGKAPKLLIYQAFKLASGVPSRFRGSGSGTDFTLTISSLQSEDFATYYCQSYSGISTTAFGGGTEVVIK
notes: Humanized variant
B2: IgG1-ROR2-A-HC7LC2-FEAR (antibody, V domains shown)
VH: EVQLLESGGGLVQPGGSLRLSCAASGFSLSSYSMSWVRQAPGKGLEWIGVIYVNSKTWYADSVKGRFTISKDNSKNTVYLQMNSLRAEDTATYYCARGDAGYTTNSWLWGQGTLVTVSS
VL: AFELTQSPSSLSASVGDRVTITCQASESIDNYLSWYQQKPGKAPKLLIYQAFKLASGVPSRFRGSGSGTDFTLTISSLQSEDFATYYCQSYSGISTTAFGGGTEVVIK
notes: Humanized variant
B3: IgG1-ROR2-A-HC3LC4-FEAR (antibody)
heavy: EVQLLESGGGLVQPGGSLRLSCTVSGFSLSSYSMSWVRQAPGKGLEWIGVIYVNSKTWYANWAKGRFTISKTSTTVYLQMNSLRAEDTATYYCARGDAGYTTNSWLWGQGTLVTVSSASTKGPSVFPLAPSSKSTSGGTAALGCLVKDYFPEPVTVSWNSGALTSGVHTFPAVLQSSGLYSLSSVVTVPSSSLGTQTYICNVNHKPSNTKVDKRVEPKSCDKTHTCPPCPAPEFEGGPSVFLFPPKPKDTLMISRTPEVTCVVVAVSHEDPEVKFNWYVDGVEVHNAKTKPREEQYNSTYRVVSVLTVLHQDWLNGKEYKCKVSNKALPAPIEKTISKAKGQPREPQVYTLPPSREEMTKNQVSLTCLVKGFYPSDIAVEWESNGQPENNYKTTPPVLDSDGSFFLYSRLTVDKSRWQQGNVFSCSVMHEALHNHYTQKSLSLSPGK
VL: DIQLTQSPSSLSASVGDRVTITCQASESIDNYLSWYQQKPGKAPKLLIYQAFKLASGVPSRFRGSGSGTDFTLTISSLQPEDFATYYCQSYSGISTTAFGGGTKVEIK
notes: Humanized variant
B4: IgG1-ROR2-A-HC5LC2-FEAR (antibody, V domains shown)
VH: EVQLLESGGGLVQPGGSLRLSCAASGFSLSSYSMSWVRQAPGKGLEWIGVIYVNSKTWYANWAKGRFTISKDNSKNTVYLQMNSLRAEDTATYYCARGDAGYTTNSWLWGQGTLVTVSS
VL: AFELTQSPSSLSASVGDRVTITCQASESIDNYLSWYQQKPGKAPKLLIYQAFKLASGVPSRFRGSGSGTDFTLTISSLQSEDFATYYCQSYSGISTTAFGGGTEVVIK
notes: Humanized variant
B5: IgG1-ROR2-A-HC3LC1-FEAR (antibody, V domains shown)
VH: EVQLLESGGGLVQPGGSLRLSCTVSGFSLSSYSMSWVRQAPGKGLEWIGVIYVNSKTWYANWAKGRFTISKTSTTVYLQMNSLRAEDTATYYCARGDAGYTTNSWLWGQGTLVTVSS
VL: AFELTQSPSSLSASVGDRVTITCQASESIDNYCSWYQQKPGKAPKLLIYQAFKLASGVPSRFRGSGSGTDFTLTISSLQSEDFATYYCQSYSGISTTAFGGGTEVVIK
notes: Humanized variant
B6: IgG1-ROR2-A-HC5LC4-FEAR (antibody)
heavy: EVQLLESGGGLVQPGGSLRLSCAASGFSLSSYSMSWVRQAPGKGLEWIGVIYVNSKTWYANWAKGRFTISKDNSKNTVYLQMNSLRAEDTATYYCARGDAGYTTNSWLWGQGTLVTVSSASTKGPSVFPLAPSSKSTSGGTAALGCLVKDYFPEPVTVSWNSGALTSGVHTFPAVLQSSGLYSLSSVVTVPSSSLGTQTYICNVNHKPSNTKVDKRVEPKSCDKTHTCPPCPAPEFEGGPSVFLFPPKPKDTLMISRTPEVTCVVVAVSHEDPEVKFNWYVDGVEVHNAKTKPREEQYNSTYRVVSVLTVLHQDWLNGKEYKCKVSNKALPAPIEKTISKAKGQPREPQVYTLPPSREEMTKNQVSLTCLVKGFYPSDIAVEWESNGQPENNYKTTPPVLDSDGSFFLYSRLTVDKSRWQQGNVFSCSVMHEALHNHYTQKSLSLSPGK
VL: DIQLTQSPSSLSASVGDRVTITCQASESIDNYLSWYQQKPGKAPKLLIYQAFKLASGVPSRFRGSGSGTDFTLTISSLQPEDFATYYCQSYSGISTTAFGGGTKVEIK
notes: Humanized variant
B7: IgG1-ROR2-A-HC4LC2-FEAR (antibody, V domains shown)
VH: EVQLLESGGGLVQPGGSLRLSCTVSGFSLSSYSMSWVRQAPGKGLEWIGVIYVNSKTWYANWAKGRFTISKDNSKNTVYLQMNSLRAEDTATYYCARGDAGYTTNSWLWGQGTLVTVSS
VL: AFELTQSPSSLSASVGDRVTITCQASESIDNYLSWYQQKPGKAPKLLIYQAFKLASGVPSRFRGSGSGTDFTLTISSLQSEDFATYYCQSYSGISTTAFGGGTEVVIK
notes: Humanized variant
B8: IgG1-ROR2-A-HC4LC1-FEAR (antibody, V domains shown)
VH: EVQLLESGGGLVQPGGSLRLSCTVSGFSLSSYSMSWVRQAPGKGLEWIGVIYVNSKTWYANWAKGRFTISKDNSKNTVYLQMNSLRAEDTATYYCARGDAGYTTNSWLWGQGTLVTVSS
VL: AFELTQSPSSLSASVGDRVTITCQASESIDNYCSWYQQKPGKAPKLLIYQAFKLASGVPSRFRGSGSGTDFTLTISSLQSEDFATYYCQSYSGISTTAFGGGTEVVIK
notes: Humanized variant
B9: IgG1-ROR2-A-HC5LC3-FEAR (antibody)
heavy: EVQLLESGGGLVQPGGSLRLSCAASGFSLSSYSMSWVRQAPGKGLEWIGVIYVNSKTWYANWAKGRFTISKDNSKNTVYLQMNSLRAEDTATYYCARGDAGYTTNSWLWGQGTLVTVSSASTKGPSVFPLAPSSKSTSGGTAALGCLVKDYFPEPVTVSWNSGALTSGVHTFPAVLQSSGLYSLSSVVTVPSSSLGTQTYICNVNHKPSNTKVDKRVEPKSCDKTHTCPPCPAPEFEGGPSVFLFPPKPKDTLMISRTPEVTCVVVAVSHEDPEVKFNWYVDGVEVHNAKTKPREEQYNSTYRVVSVLTVLHQDWLNGKEYKCKVSNKALPAPIEKTISKAKGQPREPQVYTLPPSREEMTKNQVSLTCLVKGFYPSDIAVEWESNGQPENNYKTTPPVLDSDGSFFLYSRLTVDKSRWQQGNVFSCSVMHEALHNHYTQKSLSLSPGK
VL: AFELTQSPSSLSASVGDRVTITCQASESIDNYLSWYQQKPGKAPKLLIYQAFKLASGVPSRFRGSGSGTDFTLTISSLQPEDFATYYCQSYSGISTTAFGGGTKVEIK
notes: Humanized variant
B10: IgG1-ROR2-A-HC4LC4-FEAR (antibody)
heavy: EVQLLESGGGLVQPGGSLRLSCTVSGFSLSSYSMSWVRQAPGKGLEWIGVIYVNSKTWYANWAKGRFTISKDNSKNTVYLQMNSLRAEDTATYYCARGDAGYTTNSWLWGQGTLVTVSSASTKGPSVFPLAPSSKSTSGGTAALGCLVKDYFPEPVTVSWNSGALTSGVHTFPAVLQSSGLYSLSSVVTVPSSSLGTQTYICNVNHKPSNTKVDKRVEPKSCDKTHTCPPCPAPEFEGGPSVFLFPPKPKDTLMISRTPEVTCVVVAVSHEDPEVKFNWYVDGVEVHNAKTKPREEQYNSTYRVVSVLTVLHQDWLNGKEYKCKVSNKALPAPIEKTISKAKGQPREPQVYTLPPSREEMTKNQVSLTCLVKGFYPSDIAVEWESNGQPENNYKTTPPVLDSDGSFFLYSRLTVDKSRWQQGNVFSCSVMHEALHNHYTQKSLSLSPGK
VL: DIQLTQSPSSLSASVGDRVTITCQASESIDNYLSWYQQKPGKAPKLLIYQAFKLASGVPSRFRGSGSGTDFTLTISSLQPEDFATYYCQSYSGISTTAFGGGTKVEIK
notes: Humanized variant
B11: IgG1-ROR2-A-HC6LC2-FEAR (antibody, V domains shown)
VH: EVQLLESGGGLVQPGGSLRLSCTVSGFSLSSYSMSWVRQAPGKGLEWIGVIYVNSKTWYADSVKGRFTISKDNSKNTVYLQMNSLRAEDTATYYCARGDAGYTTNSWLWGQGTLVTVSS
VL: AFELTQSPSSLSASVGDRVTITCQASESIDNYLSWYQQKPGKAPKLLIYQAFKLASGVPSRFRGSGSGTDFTLTISSLQSEDFATYYCQSYSGISTTAFGGGTEVVIK
notes: Humanized variant
B12: IgG1-ROR2-A-HC3LC3-FEAR (antibody)
heavy: EVQLLESGGGLVQPGGSLRLSCTVSGFSLSSYSMSWVRQAPGKGLEWIGVIYVNSKTWYANWAKGRFTISKTSTTVYLQMNSLRAEDTATYYCARGDAGYTTNSWLWGQGTLVTVSSASTKGPSVFPLAPSSKSTSGGTAALGCLVKDYFPEPVTVSWNSGALTSGVHTFPAVLQSSGLYSLSSVVTVPSSSLGTQTYICNVNHKPSNTKVDKRVEPKSCDKTHTCPPCPAPEFEGGPSVFLFPPKPKDTLMISRTPEVTCVVVAVSHEDPEVKFNWYVDGVEVHNAKTKPREEQYNSTYRVVSVLTVLHQDWLNGKEYKCKVSNKALPAPIEKTISKAKGQPREPQVYTLPPSREEMTKNQVSLTCLVKGFYPSDIAVEWESNGQPENNYKTTPPVLDSDGSFFLYSRLTVDKSRWQQGNVFSCSVMHEALHNHYTQKSLSLSPGK
VL: AFELTQSPSSLSASVGDRVTITCQASESIDNYLSWYQQKPGKAPKLLIYQAFKLASGVPSRFRGSGSGTDFTLTISSLQPEDFATYYCQSYSGISTTAFGGGTKVEIK
notes: Humanized variant
B13: IgG1-ROR2-A-HC5LC1-FEAR (antibody, V domains shown)
VH: EVQLLESGGGLVQPGGSLRLSCAASGFSLSSYSMSWVRQAPGKGLEWIGVIYVNSKTWYANWAKGRFTISKDNSKNTVYLQMNSLRAEDTATYYCARGDAGYTTNSWLWGQGTLVTVSS
VL: AFELTQSPSSLSASVGDRVTITCQASESIDNYCSWYQQKPGKAPKLLIYQAFKLASGVPSRFRGSGSGTDFTLTISSLQSEDFATYYCQSYSGISTTAFGGGTEVVIK
notes: Humanized variant
B14: IgG1-ROR2-A-HC6LC1-FEAR (antibody, V domains shown)
VH: EVQLLESGGGLVQPGGSLRLSCTVSGFSLSSYSMSWVRQAPGKGLEWIGVIYVNSKTWYADSVKGRFTISKDNSKNTVYLQMNSLRAEDTATYYCARGDAGYTTNSWLWGQGTLVTVSS
VL: AFELTQSPSSLSASVGDRVTITCQASESIDNYCSWYQQKPGKAPKLLIYQAFKLASGVPSRFRGSGSGTDFTLTISSLQSEDFATYYCQSYSGISTTAFGGGTEVVIK
notes: Humanized variant

Broadly, the Kd is a measure of binding affinity in units of concentration. As usually defined, the koff is the rate constant with which the complex falls apart. A word on the kon: it is a measure of how fast the partners come together. Read a low kon as slow association.

T1 sequence (Q01974 34-403): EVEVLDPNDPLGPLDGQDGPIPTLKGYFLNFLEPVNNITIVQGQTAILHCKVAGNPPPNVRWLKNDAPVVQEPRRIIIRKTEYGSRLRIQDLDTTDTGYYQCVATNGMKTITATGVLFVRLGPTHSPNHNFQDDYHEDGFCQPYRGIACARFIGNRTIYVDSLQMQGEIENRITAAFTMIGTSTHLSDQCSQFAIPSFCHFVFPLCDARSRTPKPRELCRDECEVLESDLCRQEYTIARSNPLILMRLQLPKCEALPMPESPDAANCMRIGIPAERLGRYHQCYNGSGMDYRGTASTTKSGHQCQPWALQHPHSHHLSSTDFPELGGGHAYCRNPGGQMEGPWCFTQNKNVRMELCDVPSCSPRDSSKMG

The test addresses T1, his-tagged ROR2 extracellular domain (ROR2-ECD, G&P Biosciences, cat. no. FCL0192) (human, UniProt Q01974 34-403).
T1 construct: Bought protein; also called human ROR2-ECD; recombinant human ROR2-ECD; not shown: his tag
Nature of the test: BLI (Octet), antibody on anti-human IgG Fc sensor, ROR2-ECD 1.56-100 nM as analyte. (BLI is a label-free optical method that tracks binding on a fibre tip over time.)
The molecule B1 returned an equilibrium dissociation constant (Kd) of 1.8 nM, a koff of 0.001 s⁻¹ and a kon of 560000 M⁻¹ s⁻¹.
The matching figures for B2: 4.7 nM, 0.0025 s⁻¹ and 540000 M⁻¹ s⁻¹.
The matching figures for B3: 1.5 nM, 0.00087 s⁻¹ and 580000 M⁻¹ s⁻¹.
The matching figures for B4: 1.8 nM, 0.00097 s⁻¹ and 550000 M⁻¹ s⁻¹.
Take B5: binding was put at a Kd of 1.6 nM, the koff was determined as 0.00088 s⁻¹ and the kon stood at 550000 M⁻¹ s⁻¹.
For B6 the same measures were 1.9 nM, 0.0011 s⁻¹ and 550000 M⁻¹ s⁻¹.
The matching figures for B7: 1.6 nM, 0.00095 s⁻¹ and 590000 M⁻¹ s⁻¹.
For B8 the same measures were 2.1 nM, 0.0011 s⁻¹ and 540000 M⁻¹ s⁻¹.
B9 showed a dissociation constant (Kd) of 1.7 nM, an off-rate (koff) of 0.00084 s⁻¹ and an on-rate constant (kon) of 510000 M⁻¹ s⁻¹.
Regarding B10, binding was put at a Kd of 1.5 nM, the off-rate constant (koff) worked out at 0.00092 s⁻¹ and the kon amounted to 620000 M⁻¹ s⁻¹.
For B11 the same measures were 3.9 nM, 0.0022 s⁻¹ and 560000 M⁻¹ s⁻¹.
For B12 the same measures were 1.8 nM, 0.001 s⁻¹ and 550000 M⁻¹ s⁻¹.
Turning to B13, the Kd was 1.6 nM, the off-rate (koff) was 0.00088 s⁻¹ and the kon stood at 540000 M⁻¹ s⁻¹.
For B14 the same measures were 3.1 nM, 0.0017 s⁻¹ and 560000 M⁻¹ s⁻¹.

Values taken from US20230365714A1 (published 2023).
